According to patent US20180362668A1 (JIANGSU ALPHAMAB BIOPHARMACEUTICALS, published 2018):

What was measured:
[1] = biological target: the molecule itself; experiment: non-reducing SDS-PAGE densitometry of Protein A-purified co-transfection product; chain A:chain B vectors 1:4
Source text: (§1) The cotransfection ratio of recombinant expression vector of the chain A to that of the chain B was 4:1, 1:1 and 1:4.

[2] = biological target: the molecule itself; experiment: non-reducing SDS-PAGE densitometry of Protein A-purified co-transfection product; chain A:chain B vectors 4:1
Source text: as §1

[3] = biological target: the molecule itself; experiment: non-reducing SDS-PAGE densitometry of Protein A-purified co-transfection product; chain A:chain B vectors 1:1
Source text: as §1

[4] = biological target: the molecule itself; experiment: non-reducing SDS-PAGE densitometry of Protein A-purified co-transfection product; chain A:chain B vectors 4:1; remark: listed apart in the source
Source text: (§2) The cotransfection ratio of recombinant expression vector of the chain A to that of the chain B was 4:1, 1:1 and 1:4. The transiently expressed culture supernatant was collected after 5-6 days of cultivation.

[5] = biological target: the molecule itself; experiment: non-reducing SDS-PAGE densitometry of Protein A-purified co-transfection product; chain A:chain B vectors 1:4; remark: listed apart in the source
Source text: as §2

[6] = biological target: the molecule itself; experiment: non-reducing SDS-PAGE densitometry of Protein A-purified co-transfection product; chain A:chain B vectors 1:1; remark: listed apart in the source
Source text: as §2

[7] = biological target: the molecule itself; experiment: as above; remark: listed apart in the source
Source text: The cotransfection ratio of recombinant expression vector of the chain A to that of the chain B was 1:1.

B1: ScFv-Fc fusion protein chain A with T366W + K409A + Y349D (Fc fusion)
chain: EVQLLESGGGVVQPGRSLRLSCIASGFTFSSYPMTWVRQAPGKGLEWVASISYDGSYKYKADSMKGRLTISRDNSKNTLYLEMNSLTAEDTAVYYCARTAFFNAYDFWGQGTLVTVSSASTKGPSVGGGGSGGGGSEIVMTQSPATLSVSPGERATLSCRASQSVRSNLAWYQQKPGQAPRLLIYAASTRATGIPARFSGSGSGTEFTLTISSLQSEDFAVYYCQQYNEWFRTSGQGTKVEIKRDKTHTCPPCPAPELLGGPSVFLFPPKPKDTLMISRTPEVTCVVVDVSHENPEVKFNWYVDGVEVHNAKTKPREEQYNSTYRVVSVLTVLHQDWLNGKEYKCKVSNKALPAPIEKTISKAKGQPREPQVDTLPPSRDELTKNQVSLWCLVKGFYPSDIAVEWESNGQPENNYKTTPPVLDSDGSFFLYSALTVDKSRWQQGNVFSCSVMHEALHNHYTQKSLSLSPGK
notes: Positions are EU index; it is not used here; also called combination 12 chain A
[1]
  ScFv-Fc homodimer (%): 9%
[2]
  ScFv-Fc homodimer (%): 48%
[3]
  ScFv-Fc homodimer (%): 14%

B2: ScFv-Fc fusion protein chain A with T366W + K409A + Y349D + S354D (Fc fusion)
chain: EVQLLESGGGVVQPGRSLRLSCIASGFTFSSYPMTWVRQAPGKGLEWVASISYDGSYKYKADSMKGRLTISRDNSKNTLYLEMNSLTAEDTAVYYCARTAFFNAYDFWGQGTLVTVSSASTKGPSVGGGGSGGGGSEIVMTQSPATLSVSPGERATLSCRASQSVRSNLAWYQQKPGQAPRLLIYAASTRATGIPARFSGSGSGTEFTLTISSLQSEDFAVYYCQQYNEWFRTSGQGTKVEIKRDKTHTCPPCPAPELLGGPSVFLFPPKPKDTLMISRTPEVTCVVVDVSHENPEVKFNWYVDGVEVHNAKTKPREEQYNSTYRVVSVLTVLHQDWLNGKEYKCKVSNKALPAPIEKTISKAKGQPREPQVDTLPPDRDELTKNQVSLWCLVKGFYPSDIAVEWESNGQPENNYKTTPPVLDSDGSFFLYSALTVDKSRWQQGNVFSCSVMHEALHNHYTQKSLSLSPGK
notes: Positions are EU index; also called combination 13 chain A
[1]
  ScFv-Fc homodimer (%): 2%
[2]
  ScFv-Fc homodimer (%): 37%
[3]
  ScFv-Fc homodimer (%): 10%

B3: ScFv-Fc fusion protein chain A with T366W + F405K + D399S (Fc fusion)
chain: EVQLLESGGGVVQPGRSLRLSCIASGFTFSSYPMTWVRQAPGKGLEWVASISYDGSYKYKADSMKGRLTISRDNSKNTLYLEMNSLTAEDTAVYYCARTAFFNAYDFWGQGTLVTVSSASTKGPSVGGGGSGGGGSEIVMTQSPATLSVSPGERATLSCRASQSVRSNLAWYQQKPGQAPRLLIYAASTRATGIPARFSGSGSGTEFTLTISSLQSEDFAVYYCQQYNEWFRTSGQGTKVEIKRDKTHTCPPCPAPELLGGPSVFLFPPKPKDTLMISRTPEVTCVVVDVSHENPEVKFNWYVDGVEVHNAKTKPREEQYNSTYRVVSVLTVLHQDWLNGKEYKCKVSNKALPAPIEKTISKAKGQPREPQVYTLPPSRDELTKNQVSLWCLVKGFYPSDIAVEWESNGQPENNYKTTPPVLSSDGSFKLYSKLTVDKSRWQQGNVFSCSVMHEALHNHYTQKSLSLSPGK
notes: Positions are EU index; also called combination 15 chain A
[4]
  ScFv-Fc homodimer (%): 28%
[5]
  ScFv-Fc homodimer (%): < 1%
[6]
  ScFv-Fc homodimer (%): 6%

B4: ScFv-Fc fusion protein chain A with T366W + F405K (Fc fusion)
chain: EVQLLESGGGVVQPGRSLRLSCIASGFTFSSYPMTWVRQAPGKGLEWVASISYDGSYKYKADSMKGRLTISRDNSKNTLYLEMNSLTAEDTAVYYCARTAFFNAYDFWGQGTLVTVSSASTKGPSVGGGGSGGGGSEIVMTQSPATLSVSPGERATLSCRASQSVRSNLAWYQQKPGQAPRLLIYAASTRATGIPARFSGSGSGTEFTLTISSLQSEDFAVYYCQQYNEWFRTSGQGTKVEIKRDKTHTCPPCPAPELLGGPSVFLFPPKPKDTLMISRTPEVTCVVVDVSHENPEVKFNWYVDGVEVHNAKTKPREEQYNSTYRVVSVLTVLHQDWLNGKEYKCKVSNKALPAPIEKTISKAKGQPREPQVYTLPPSRDELTKNQVSLWCLVKGFYPSDIAVEWESNGQPENNYKTTPPVLDSDGSFKLYSKLTVDKSRWQQGNVFSCSVMHEALHNHYTQKSLSLSPGK
notes: Positions are EU index; also called combination 16 chain A
[4]
  ScFv-Fc homodimer (%): 23%
[5]
  ScFv-Fc homodimer (%): 3%
[6]
  ScFv-Fc homodimer (%): 5%

B5: VhH-Fc fusion protein chain B with T366S + L368G + Y407A + K409A (Fc fusion)
chain: QVQLQESGGGSVQAGGSLRLSCAASEYIYSSYCMAWFRQAPGKEREGVAVIGSDGSTSYADSVKGRFTISKDNAKNTLYLQMNSLKPEDTAMYYCAAIGGYCYQPPYEYQYWGQGTQVTVSSEPKSSDKTHTCPPCPAPELLGGPSVFLFPPKPKDTLMISRTPEVTCVVVDVSHEDPEVKFNWYVDGVEVHNAKTKPREEQYNSTYRVVSVLTVLHQDWLNGKEYKCKVSNKALPAPIEKTISKAKGQPREPQVYTLPPSRDELTKNQVSLSCGVKGFYPSDIAVEWESNGQPENNYKTTPPVLDSDGSFFLASALTVDKSRWQQGNVFSCSVMHEALHNHYTQKSLSLSPGK
notes: Positions are EU index; also called combination 16 chain B
[4]
  VhH-Fc homodimer (%): < 1%
[5]
  VhH-Fc homodimer (%): 4%
[6]
  VhH-Fc homodimer (%): 7%

B6: Fc protein chain B with D356C + T366S + L368A + Y407V + F405K + Q347R (other)
chain: DKTHTCPPCPAPELLGGPSVFLFPPKPKDTLMISRTPEVTCVVVDVSHEDPEVKFNWYVDGVEVHNAKTKPREEQYNSTYRVVSVLTVLHQDWLNGKEYKCKVSNKALPAPIEKTISKAKGQPREPRVYTLPPSRCELTKNQVSLSCAVKGFYPSDIAVEWESNGQPENNYKTTPPVLDSDGSFKLVSKLTVDKSRWQQGNVFSCSVMHEALHNHYTQKSLSLSPGK
notes: also called combination 7 chain B
[7]
  Proportion of Fc homodimer (%): 12%

B7: ScFv-Fc fusion protein chain A with Y349C + T366W + K409A + Q347R (Fc fusion)
chain: EVQLLESGGGVVQPGRSLRLSCIASGFTFSSYPMTWVRQAPGKGLEWVASISYDGSYKYKADSMKGRLTISRDNSKNTLYLEMNSLTAEDTAVYYCARTAFFNAYDFWGQGTLVTVSSASTKGPSVGGGGSGGGGSEIVMTQSPATLSVSPGERATLSCRASQSVRSNLAWYQQKPGQAPRLLIYAASTRATGIPARFSGSGSGTEFTLTISSLQSEDFAVYYCQQYNEWFRTSGQGTKVEIKRDKTHTCPPCPAPELLGGPSVFLFPPKPKDTLMISRTPEVTCVVVDVSHENPEVKFNWYVDGVEVHNAKTKPREEQYNSTYRVVSVLTVLHQDWLNGKEYKCKVSNKALPAPIEKTISKAKGQPREPRVCTLPPSRDELTKNQVSLWCLVKGFYPSDIAVEWESNGQPENNYKTTPPVLDSDGSFFLYSALTVDKSRWQQGNVFSCSVMHEALHNHYTQKSLSLSPGK
notes: Positions are EU index; also called combination 8 chain A
[7]
  ScFv-Fc homodimer (%): 21%

B8: Fc protein chain B with D356C + T366S + L368A + Y407V + F405K + K360E + Q347E (other)
chain: DKTHTCPPCPAPELLGGPSVFLFPPKPKDTLMISRTPEVTCVVVDVSHEDPEVKFNWYVDGVEVHNAKTKPREEQYNSTYRVVSVLTVLHQDWLNGKEYKCKVSNKALPAPIEKTISKAKGQPREPEVYTLPPSRCELTENQVSLSCAVKGFYPSDIAVEWESNGQPENNYKTTPPVLDSDGSFKLVSKLTVDKSRWQQGNVFSCSVMHEALHNHYTQKSLSLSPGK
notes: also called combination 8 chain B
[7]
  Proportion of Fc homodimer (%): 8%

B9: ScFv-Fc fusion protein chain A with T366W + K409A + K392D (Fc fusion)
chain: EVQLLESGGGVVQPGRSLRLSCIASGFTFSSYPMTWVRQAPGKGLEWVASISYDGSYKYKADSMKGRLTISRDNSKNTLYLEMNSLTAEDTAVYYCARTAFFNAYDFWGQGTLVTVSSASTKGPSVGGGGSGGGGSEIVMTQSPATLSVSPGERATLSCRASQSVRSNLAWYQQKPGQAPRLLIYAASTRATGIPARFSGSGSGTEFTLTISSLQSEDFAVYYCQQYNEWFRTSGQGTKVEIKRDKTHTCPPCPAPELLGGPSVFLFPPKPKDTLMISRTPEVTCVVVDVSHENPEVKFNWYVDGVEVHNAKTKPREEQYNSTYRVVSVLTVLHQDWLNGKEYKCKVSNKALPAPIEKTISKAKGQPREPQVYTLPPSRDELTKNQVSLWCLVKGFYPSDIAVEWESNGQPENNYDTTPPVLDSDGSFFLYSALTVDKSRWQQGNVFSCSVMHEALHNHYTQKSLSLSPGK
notes: Positions are EU index; also called combination 10 chain A
[1]
  ScFv-Fc homodimer (%): < 1%
[2]
  ScFv-Fc homodimer (%): 39%
[3]
  ScFv-Fc homodimer (%): 7%

B10: ScFv-Fc fusion protein chain A with T366W + K409A (Fc fusion)
chain: EVQLLESGGGVVQPGRSLRLSCIASGFTFSSYPMTWVRQAPGKGLEWVASISYDGSYKYKADSMKGRLTISRDNSKNTLYLEMNSLTAEDTAVYYCARTAFFNAYDFWGQGTLVTVSSASTKGPSVGGGGSGGGGSEIVMTQSPATLSVSPGERATLSCRASQSVRSNLAWYQQKPGQAPRLLIYAASTRATGIPARFSGSGSGTEFTLTISSLQSEDFAVYYCQQYNEWFRTSGQGTKVEIKRDKTHTCPPCPAPELLGGPSVFLFPPKPKDTLMISRTPEVTCVVVDVSHENPEVKFNWYVDGVEVHNAKTKPREEQYNSTYRVVSVLTVLHQDWLNGKEYKCKVSNKALPAPIEKTISKAKGQPREPQVYTLPPSRDELTKNQVSLWCLVKGFYPSDIAVEWESNGQPENNYKTTPPVLDSDGSFFLYSALTVDKSRWQQGNVFSCSVMHEALHNHYTQKSLSLSPGK
notes: Positions are EU index; also called combination 11 chain A
[1]
  ScFv-Fc homodimer (%): 11%
[2]
  ScFv-Fc homodimer (%): 52%
[3]
  ScFv-Fc homodimer (%): 15%

B11: VhH-Fc fusion protein chain B with T366S + L368G + Y407A + F405K (Fc fusion)
chain: QVQLQESGGGSVQAGGSLRLSCAASEYIYSSYCMAWFRQAPGKEREGVAVIGSDGSTSYADSVKGRFTISKDNAKNTLYLQMNSLKPEDTAMYYCAAIGGYCYQPPYEYQYWGQGTQVTVSSEPKSSDKTHTCPPCPAPELLGGPSVFLFPPKPKDTLMISRTPEVTCVVVDVSHEDPEVKFNWYVDGVEVHNAKTKPREEQYNSTYRVVSVLTVLHQDWLNGKEYKCKVSNKALPAPIEKTISKAKGQPREPQVYTLPPSRDELTKNQVSLSCGVKGFYPSDIAVEWESNGQPENNYKTTPPVLDSDGSFKLASKLTVDKSRWQQGNVFSCSVMHEALHNHYTQKSLSLSPGK
notes: Positions are EU index; also called combination 11 chain B
[1]
  VhH-Fc homodimer (%): 0%
[2]
  VhH-Fc homodimer (%): 0%
[3]
  VhH-Fc homodimer (%): 0%
